In one assay the target is HLA-A*02:11. Kind of assay: IEDB peptide-MHC binding, purified MHC/direct/fluorescence; filed as Kd, often an IC50 or EC50 that approximates it; ≥ and ≤ were set here for values at or beyond the usual limits of such assays. The note with it: source organism: Sudan ebolavirus.
The next assay has as its target HLA-A*02:12. The description is as above.
In a further assay the target is HLA-A*02:16. The assay is described as above. The conditions noted are these: source organism: Sudan ebolavirus.
For the next assay, the target named is HLA-A*68:02. Described as above.
The next assay has as its target HLA-A*02:03. The description is as above.
Another assay has as its target HLA-A*03:01. The assay is described as above.
The next assay concerns the target HLA-C*08:02. The description is as above.
A further assay concerns the target HLA-A*02:19. The assay is described as above.
A further assay deals with HLA-A*24:03. Described as above.
Assay [1] has as its target HLA-A*26:01. The assay is described as above. The conditions noted are these: source organism: Sudan virus - Boniface, Sudan,1976.
In assay [2] the target is HLA-A*01:01. Kind of assay: IEDB peptide-MHC binding, purified MHC/competitive/fluorescence; ≥ and ≤ were set here for values at or beyond the usual limits of such assays. The conditions noted are these: source organism: Sudan ebolavirus.
The target of a further assay is HLA-B*15:01. The description is as above. The conditions noted are these: source organism: Sudan ebolavirus.
Assay [3] deals with HLA-A*02:01. The assay is described as above. The note with it: source organism: Sudan ebolavirus.
A further assay concerns the target HLA-B*51:01. Kind of assay: IEDB peptide-MHC binding, purified MHC/competitive/fluorescence; filed as Kd, often an IC50 or EC50 that approximates it; ≥ and ≤ were set here for values at or beyond the usual limits of such assays. The note with it: source organism: Sudan ebolavirus.
The target in a further assay is HLA-B*57:01. Described as above. The conditions noted are these: source organism: Sudan ebolavirus.
The next assay has as its target HLA-B*39:01. The description is as above.
For a further assay, the target named is HLA-B*46:01. Described as above.
A further assay concerns the target HLA-A*69:01. The description is as above.
Assay [4] deals with HLA-A*02:01. The assay is described as above. The conditions noted are these: source organism: Sudan ebolavirus.
A further assay has as its target HLA-B*27:03. The assay is described as above.
Assay [5] addresses HLA-A*01:01. Kind of assay: IEDB peptide-MHC binding, purified MHC/direct/fluorescence; filed as Kd, often an IC50 or EC50 that approximates it; ≥ and ≤ were set here for values at or beyond the usual limits of such assays. The note with it: source organism: Orthohantavirus andesense.
The target of another assay is HLA-B*58:01. The description is as above. The note with it: source organism: Orthohantavirus andesense.
The next assay deals with HLA-A*23:01. The assay is described as above. The conditions noted are these: source organism: Choclo virus.
In the next assay the target is HLA-C*03:03. The assay is described as above. The conditions noted are these: source organism: Orthohantavirus khabarovskense.
A further assay addresses HLA-C*12:03. Described as above. The conditions noted are these: source organism: Orthohantavirus khabarovskense.
In the next assay the target is HLA-B*18:01. Kind of assay: IEDB peptide-MHC binding, purified MHC/competitive/fluorescence; filed as Kd, often an IC50 or EC50 that approximates it; ≥ and ≤ were set here for values at or beyond the usual limits of such assays. The note with it: source organism: Orthohantavirus khabarovskense.
A further assay concerns the target HLA-B*35:01. Described as above. The note with it: source organism: Orthohantavirus khabarovskense.
In assay [6] the target is HLA-A*26:01. Described as above. The conditions noted are these: source organism: Orthohantavirus khabarovskense.
Another assay has as its target HLA-B*83:01. The description is as above. The conditions noted are these: source organism: human gammaherpesvirus 4.
The target of a further assay is HLA-A*68:23. The description is as above. The note with it: source organism: human gammaherpesvirus 4.
For another assay, the target named is HLA-B*45:06. Described as above. The note with it: source organism: human gammaherpesvirus 4.
Another assay deals with HLA-B*15:42. The description is as above. The note with it: source organism: human gammaherpesvirus 4.
The next assay concerns the target HLA-C*14:02. The description is as above. The note with it: source organism: human gammaherpesvirus 4.
Where [7] appears, read: source organism: Sudan ebolavirus.
Where [8] appears, read: source organism: Orthohantavirus khabarovskense.

In the case of YTENTSSYY, the Kd with HLA-A*02:11, with HLA-A*02:12 (setting [7]), in the assay with HLA-A*02:16, with HLA-A*68:02 (setting [7]), with HLA-A*02:03 (setting [7]) and with HLA-A*03:01 (setting [7]) was at least 20 µM in each case. For the same sequence, the dissociation constant (Kd) in the assay with HLA-C*08:02 (setting [7]) is at least 20 µM; with HLA-A*02:19 (setting [7]), at least 20 µM; in the assay with HLA-A*24:03 (setting [7]) it was at least 20 µM; with HLA-A*26:01 [1] it was 0.007 µM; with HLA-B*51:01 it was at least 20 µM; in the assay with HLA-B*57:01, at least 20 µM. Besides, the Kd with HLA-B*39:01 (setting [7]), with HLA-B*46:01 (setting [7]), in the assay with HLA-A*69:01 (setting [7]), with HLA-A*02:01 [4] and with HLA-B*27:03 (setting [7]) was at least 20 µM each time. For the same sequence, the IC50 with HLA-A*01:01 [2] was 0.927 µM; in the assay with HLA-B*15:01, 23.1 µM; in the assay with HLA-A*02:01 [3] it was at least 213 µM.
Regarding FSLPSSSSY, the Kd in the assay with HLA-A*01:01 [5] is 0.377 µM; with HLA-B*58:01, 0.0218 µM; with HLA-A*23:01, at least 20 µM; with HLA-A*02:12 (source organism: Choclo virus) it was at least 20 µM; with HLA-C*03:03, 0.028 µM; with HLA-A*68:02 (source organism: Choclo virus), at least 20 µM. Moreover, the Kd with HLA-C*12:03 is 0.043 µM; with HLA-A*02:03 (source organism: Choclo virus), at least 20 µM; in the assay with HLA-A*03:01 (source organism: Choclo virus), at least 20 µM; with HLA-C*08:02 (setting [8]), at least 20 µM; with HLA-A*02:19 (source organism: Choclo virus), at least 20 µM; in the assay with HLA-A*24:03 (source organism: Choclo virus), at least 20 µM. Also, the Kd with HLA-B*18:01 is at least 20 µM; with HLA-B*39:01 (setting [8]), at least 20 µM; with HLA-B*46:01 (setting [8]) it was 0.0707 µM; with HLA-A*69:01 (setting [8]) it was at least 20 µM; with HLA-B*35:01 it was at most 0.0001 µM; with HLA-B*27:03 (setting [8]), at least 20 µM. The same sequence came in with a dissociation constant Kd with HLA-A*26:01 [6] of at least 20 µM.
As for YTGAMTSKF, the Kd in the assay with HLA-B*83:01 is at least 5 µM; in the assay with HLA-A*68:23, 0.0715 µM; in the assay with HLA-B*45:06, at least 5 µM; in the assay with HLA-B*15:42, at least 5 µM; with HLA-C*14:02, 0.394 µM.

The values above are taken from the Immune Epitope Database (IEDB).
